From patent publication US20230235048A1 (PROTHENA BIOSCIENCES, published 2023)

T1: extracellular domain (ECD) of recombinant human Sortilin with a C-terminal HIS tag (ECD-huSortilin-HIS) (human, UniProt Q99523 78-755)
T1 construct: Bought (R&D Systems); also called human sortilin-ECD; not shown: C-terminal HIS tag
T1 sequence: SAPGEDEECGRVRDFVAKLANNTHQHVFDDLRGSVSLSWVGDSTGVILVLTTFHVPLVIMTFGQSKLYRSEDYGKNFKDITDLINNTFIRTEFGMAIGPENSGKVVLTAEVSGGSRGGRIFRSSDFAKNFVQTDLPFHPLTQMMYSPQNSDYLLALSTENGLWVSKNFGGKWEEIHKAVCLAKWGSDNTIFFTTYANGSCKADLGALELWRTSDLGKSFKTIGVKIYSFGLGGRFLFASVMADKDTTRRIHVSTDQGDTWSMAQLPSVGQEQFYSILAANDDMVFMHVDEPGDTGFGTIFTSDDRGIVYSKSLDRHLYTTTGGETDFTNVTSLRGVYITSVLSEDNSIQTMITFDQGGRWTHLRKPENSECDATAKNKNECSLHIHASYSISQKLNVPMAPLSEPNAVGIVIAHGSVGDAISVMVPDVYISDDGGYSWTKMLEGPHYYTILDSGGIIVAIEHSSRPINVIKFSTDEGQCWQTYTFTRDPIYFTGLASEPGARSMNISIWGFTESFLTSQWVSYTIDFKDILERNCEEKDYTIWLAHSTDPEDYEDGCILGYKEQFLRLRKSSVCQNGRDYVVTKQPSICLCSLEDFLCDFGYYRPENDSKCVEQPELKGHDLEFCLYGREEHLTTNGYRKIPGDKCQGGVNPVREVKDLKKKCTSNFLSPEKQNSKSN


Tests used:
[1] = molecular target: T1, extracellular domain (ECD) of …; assay: ELISA, ECD-huSortilin-HIS coated at 1 ug/mL, goat anti-human IgG-HRP, chemiluminescence
Protocol: 384-well ELISA plates were coated with 1 ug/mL recombinant ECD-huSortilin-HIS (20 uL/well) and incubated overnight at 4° C. all plates were blocked with 3% BSA in PBS for 1 hour at room temperature. Plates were then washed with Tris buffered saline containing 0.1% Tween20 (TBST) three times. 20 uL of humanized anti-Sortilin mAbs diluted 3-fold from 20 ug/mL to 0.3 ng/mL in 1% BSA in TBST were added to the wells, incubated for 1 hour at room temperature and then washed as above. Goat anti-human IgG specific-HRP (Jackson Immunoresearch) diluted 1:7000 in 1% BSA in TBST was then added at 20 uL per well to react with the bound antibodies and plates were incubated for 1 hour before being washed as above. Super signal Pico chemiluminescent ELISA substrate (ThermoFisher) was used for detection. 20 uL of substrate was added to each well and Relative Light Units (RLU) were measured immediately using the SpectraMax Paradigm (Molecular Devices). Data was analyzed and EC₅₀ was calculated using graphed Prism.

[2] = molecular target: T1, extracellular domain (ECD) of …; assay: SPR (Biacore T200), mAb captured by anti-human antibody on CM5, Sortilin 0.1-300 nM as analyte, global 1:1 fit
Protocol: Analysis was performed using a Biacore T200 to compare the binding affinity of chimeric and humanized antibodies to recombinant human Sortilin. Anti-Human antibody was immobilized on sensor chip CM5 (GE Healthcare Life Sciences) via amine coupling, and humanized antibodies (ligand) were captured to a level to ensure a maximum binding of analyte of 50 RU (approximately 100 RU of ligand binding). Various concentrations of Sortilin (ranging from 0.1 nM to 300 nM) were passed over the captured ligand at 50 μL/min in running buffer (HBS+0.05% P-20, 1 mg/mL BSA) for 300s association time and 1200s dissociation time. Regeneration of the chip surface was accomplished by 2 short injections of 3M MgCl. Data was blank subtracted to both a sensor not containing ligand and 0 nM analyte concentration. Analysis was performed using a global 1:1 fit with Biacore Insight Evaluation software (v2.0) with bulk refractive index set to zero RU.

| EC50 [1] | Kd [2] | koff [2] | kon [2] | Binder |
| --- | --- | --- | --- | --- |
| 0.06 µg/mL | 2.52 nM | – | – | chimeric 11M14 (antibody, human IgG1, kappa, L234A L235A, V domains shown) VH: EVQLVESGGDLVKPGGSLKLSCAASGFTFNIYGMSWVRQTPDKRLEWVATISSGGIYTYYPDILKGRFTISRDNAKNTLYLQMSSLKSEDTAMYYCARHPGGAMDYWGQGTSVTVSS VL: DIQMTQSPASLSVSVGETVTITCRVSENIYSNLAWYQQKQGKSPHLLVYAATNLADGVPSRFSGSGSGTQYSLKINSLQSEDFGSYYCQHFWGTPPWTFGGGTKLEIKR |
| 0.08 µg/mL | 5.37 nM | 0.00193 s⁻¹ | 360000 M⁻¹ s⁻¹ | humanized 11M14 hu11M14VHv1b/hu11M14VLv2b (antibody, V domains shown, Human IgG; also called 11M14H1bL2b) VH: EVQLVESGGGLVQPGGSLRLSCAASGFTFNIYGMSWVRQAPGKGLEWVATISSGGIYTYYPDILKGRFTISRDNAKNSLYLQMNSLRAEDTAVYYCARHPGGAMDYWGQGTLVTVSS VL: DIQMTQSPSSLSASVGDRVTITCRVSENIYSNLAWYQQKPGKSPKLLVYAATNLADGVPSRFSGSGSGTDYTLTISSLQPEDFATYYCQHFWGTPPWTFGQGTKLEIK |
| 0.07 µg/mL | 5.3 nM | 0.002 s⁻¹ | 377000 M⁻¹ s⁻¹ | humanized 11M14 hu11M14VHv1b/hu11M14VLv3b (antibody, V domains shown, Human IgG; also called 11M14H1bL3b; hu11M14H1bL3b) VH: EVQLVESGGGLVQPGGSLRLSCAASGFTFNIYGMSWVRQAPGKGLEWVATISSGGIYTYYPDILKGRFTISRDNAKNSLYLQMNSLRAEDTAVYYCARHPGGAMDYWGQGTLVTVSS VL: DIQMTQSPSSLSASVGDRVTITCRVSENIYSNLAWYQQKPGKSPKLLVYAATNGADGVPSRFSGSGSGTDYTLTISSLQPEDFATYYCQHFWGTPPWTFGQGTKLEIK |
| 0.13 µg/mL | 2.99 nM | 0.00119 s⁻¹ | 398000 M⁻¹ s⁻¹ | humanized 11M14 hu11M14VHv2b/hu11M14VLv3b (antibody, V domains shown, Human IgG; also called 11M14H2bL3b) VH: EVQLVESGGGLVQPGGSLRLSCAASGFTFNIYGMSWVRQAPGKGLEWVATISSGGIYTYYPDILKGRFTISRDNAKNSLYLQMNSGRAEDTAVYYCARHPGGAMDYWGQGTLVTVSS VL: DIQMTQSPSSLSASVGDRVTITCRVSENIYSNLAWYQQKPGKSPKLLVYAATNGADGVPSRFSGSGSGTDYTLTISSLQPEDFATYYCQHFWGTPPWTFGQGTKLEIK |
| 0.07 µg/mL | 2.86 nM | 0.0012 s⁻¹ | 421000 M⁻¹ s⁻¹ | humanized 11M14 hu11M14VHv2b/hu11M14VLv2b (antibody, V domains shown, Human IgG; also called 11M14H2bL2b) VH: EVQLVESGGGLVQPGGSLRLSCAASGFTFNIYGMSWVRQAPGKGLEWVATISSGGIYTYYPDILKGRFTISRDNAKNSLYLQMNSGRAEDTAVYYCARHPGGAMDYWGQGTLVTVSS VL: DIQMTQSPSSLSASVGDRVTITCRVSENIYSNLAWYQQKPGKSPKLLVYAATNLADGVPSRFSGSGSGTDYTLTISSLQPEDFATYYCQHFWGTPPWTFGQGTKLEIK |
| 0.08 µg/mL | 5.32 nM | 0.0019 s⁻¹ | 357000 M⁻¹ s⁻¹ | humanized 11M14 hu11M14VHv1b/hu11M14VLv4b (antibody, V domains shown, Human IgG; also called 11M14H1bL4b) VH: EVQLVESGGGLVQPGGSLRLSCAASGFTFNIYGMSWVRQAPGKGLEWVATISSGGIYTYYPDILKGRFTISRDNAKNSLYLQMNSLRAEDTAVYYCARHPGGAMDYWGQGTLVTVSS VL: DIQMTQSPSSLSASVGDRVTITCRVSENIYSNLAWYQQKPGKSPKLLVYAATNIADGVPSRFSGSGSGTDYTLTISSLQPEDFATYYCQHFWGTPPWTFGQGTKLEIK |
| 0.19 µg/mL | 7.07 nM | 0.00225 s⁻¹ | 319000 M⁻¹ s⁻¹ | humanized 11M14 hu11M14VHv3b/hu11M14VLv2b (antibody, V domains shown, Human IgG; also called 11M14H3bL2b) VH: EVQLVESGGGLVQPGGSLRLSCAASGFTFNIYGMSWVRQAPGKGLEWVATISSGGIYTYYPDILKGRFTISRDNAKNSLYGQMNSLRAEDTAVYYCARHPGGAMDYWGQGTLVTVSS VL: DIQMTQSPSSLSASVGDRVTITCRVSENIYSNLAWYQQKPGKSPKLLVYAATNLADGVPSRFSGSGSGTDYTLTISSLQPEDFATYYCQHFWGTPPWTFGQGTKLEIK |
| 0.23 µg/mL | 9.17 nM | 0.00343 s⁻¹ | 374000 M⁻¹ s⁻¹ | humanized 11M14 hu11M14VHv3b/hu11M14VLv3b (antibody, V domains shown, Human IgG; also called 11M14H3bL3b) VH: EVQLVESGGGLVQPGGSLRLSCAASGFTFNIYGMSWVRQAPGKGLEWVATISSGGIYTYYPDILKGRFTISRDNAKNSLYGQMNSLRAEDTAVYYCARHPGGAMDYWGQGTLVTVSS VL: DIQMTQSPSSLSASVGDRVTITCRVSENIYSNLAWYQQKPGKSPKLLVYAATNGADGVPSRFSGSGSGTDYTLTISSLQPEDFATYYCQHFWGTPPWTFGQGTKLEIK |
| 0.1 µg/mL | 2.84 nM | 0.00117 s⁻¹ | 413000 M⁻¹ s⁻¹ | humanized 11M14 hu11M14VHv2b/hu11M14VLv4b (antibody, V domains shown, Human IgG; also called 11M14H2bL4b) VH: EVQLVESGGGLVQPGGSLRLSCAASGFTFNIYGMSWVRQAPGKGLEWVATISSGGIYTYYPDILKGRFTISRDNAKNSLYLQMNSGRAEDTAVYYCARHPGGAMDYWGQGTLVTVSS VL: DIQMTQSPSSLSASVGDRVTITCRVSENIYSNLAWYQQKPGKSPKLLVYAATNIADGVPSRFSGSGSGTDYTLTISSLQPEDFATYYCQHFWGTPPWTFGQGTKLEIK |
| 0.12 µg/mL | – | – | – | humanized 5E20 hu5E20VHv1/hu5E20VLv1 (antibody, V domains shown, Human IgG (detected or captured with anti-human IgG; huIgG1 control); also called 5E20H1L1) VH: EVQLLESGGGLVQPGGSLRLSCAASGFTFSTYGMSWVRQAPGKGLEWVAIISSGGSYTYYSDTVKGRFTISRDNSKNTLYLQMNSLRAEDTAVYYCSRSSSHWYFDVWGQGTLVTVSS VL: DIQMTQSPSSLSASVGDRVTITCHASQGISSNIGWLQQKPGKAFKGLIYHGTNLKDGVPSRFSGSGSGADFTLTISSLQPEDFATYFCVQYAQFPYTFGGGTKVEIR |
| 0.08 µg/mL | – | – | – | humanized 5E20 hu5E20VHv2/hu5E20VLv2 (antibody, V domains shown, Human IgG; also called 5E20H2L2) VH: EVQLVESGGGLVQPGGSLRLSCAASGFTFSTYGMSWVRQAPGKGLEWVAIISSGGSYTYYSDTVKGRFTISRDNSKNSLYLQMNSLRAEDTAVYYCSRSSSHWYFDVWGQGTLVTVSS VL: DIQMTQSPSSVSASVGDRVTITCHASQGISSNIGWLQQKPGKAFKGLIYHGTNLKDGVPSRFSGSGSGADFTLTISSLQPEDFATYFCVQYAQFPYTFGQGTKVEIR |
| 0.12 µg/mL | – | – | – | humanized 5E20 hu5E20VHv1/hu5E20VLv2 (antibody, V domains shown, Human IgG; also called 5E20H1L2) VH: EVQLLESGGGLVQPGGSLRLSCAASGFTFSTYGMSWVRQAPGKGLEWVAIISSGGSYTYYSDTVKGRFTISRDNSKNTLYLQMNSLRAEDTAVYYCSRSSSHWYFDVWGQGTLVTVSS VL: DIQMTQSPSSVSASVGDRVTITCHASQGISSNIGWLQQKPGKAFKGLIYHGTNLKDGVPSRFSGSGSGADFTLTISSLQPEDFATYFCVQYAQFPYTFGQGTKVEIR |
| 0.09 µg/mL | – | – | – | humanized 5E20 hu5E20VHv1/hu5E20VLv3 (antibody, V domains shown, Human IgG; also called 5E20H1L3) VH: EVQLLESGGGLVQPGGSLRLSCAASGFTFSTYGMSWVRQAPGKGLEWVAIISSGGSYTYYSDTVKGRFTISRDNSKNTLYLQMNSLRAEDTAVYYCSRSSSHWYFDVWGQGTLVTVSS VL: DIQMTQSPSSVSASVGDRVTITCHASQGISSNIGWLQQKPGKAFKGLIYHGTNLKDGVPSRFSGSGSGADFTLTISSLQPEDFATYFCVQYAQFPYTFGQGTKVEKR |
| 0.1 µg/mL | – | – | – | humanized 5E20 hu5E20VHv2/hu5E20VLv3 (antibody, V domains shown, Human IgG; also called 5E20H2L3) VH: EVQLVESGGGLVQPGGSLRLSCAASGFTFSTYGMSWVRQAPGKGLEWVAIISSGGSYTYYSDTVKGRFTISRDNSKNSLYLQMNSLRAEDTAVYYCSRSSSHWYFDVWGQGTLVTVSS VL: DIQMTQSPSSVSASVGDRVTITCHASQGISSNIGWLQQKPGKAFKGLIYHGTNLKDGVPSRFSGSGSGADFTLTISSLQPEDFATYFCVQYAQFPYTFGQGTKVEKR |
| 0.12 µg/mL | – | – | – | humanized 5E20 hu5E20VHv2/hu5E20VLv1 (antibody, V domains shown, Human IgG; also called 5E20H2L1) VH: EVQLVESGGGLVQPGGSLRLSCAASGFTFSTYGMSWVRQAPGKGLEWVAIISSGGSYTYYSDTVKGRFTISRDNSKNSLYLQMNSLRAEDTAVYYCSRSSSHWYFDVWGQGTLVTVSS VL: DIQMTQSPSSLSASVGDRVTITCHASQGISSNIGWLQQKPGKAFKGLIYHGTNLKDGVPSRFSGSGSGADFTLTISSLQPEDFATYFCVQYAQFPYTFGGGTKVEIR |
